From US20250197467A1 (BRIGHT PEAK THERAPEUTICS, published 2025)

Columns and labels:
[1] = target: T1, IL-18 receptor (IL-18Rαβ) on cells (UniProt Q13478 19-541; O95256 20-599, limits assumed); test: cell-based or functional assay
T1 sequence (looked up) 1: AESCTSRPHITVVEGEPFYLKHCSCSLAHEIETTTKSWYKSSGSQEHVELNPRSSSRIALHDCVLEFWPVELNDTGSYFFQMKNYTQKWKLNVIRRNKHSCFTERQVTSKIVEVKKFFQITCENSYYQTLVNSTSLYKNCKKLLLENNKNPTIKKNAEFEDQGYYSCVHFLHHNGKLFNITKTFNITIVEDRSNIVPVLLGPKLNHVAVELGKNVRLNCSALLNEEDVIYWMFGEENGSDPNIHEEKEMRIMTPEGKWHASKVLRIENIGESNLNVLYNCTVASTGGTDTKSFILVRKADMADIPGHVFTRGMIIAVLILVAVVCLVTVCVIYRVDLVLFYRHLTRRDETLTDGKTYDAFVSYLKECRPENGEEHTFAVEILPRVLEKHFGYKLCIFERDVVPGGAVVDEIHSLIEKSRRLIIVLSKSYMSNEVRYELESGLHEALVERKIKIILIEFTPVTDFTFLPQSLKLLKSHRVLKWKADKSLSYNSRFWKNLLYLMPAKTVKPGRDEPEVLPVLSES
T1 sequence (looked up) 2: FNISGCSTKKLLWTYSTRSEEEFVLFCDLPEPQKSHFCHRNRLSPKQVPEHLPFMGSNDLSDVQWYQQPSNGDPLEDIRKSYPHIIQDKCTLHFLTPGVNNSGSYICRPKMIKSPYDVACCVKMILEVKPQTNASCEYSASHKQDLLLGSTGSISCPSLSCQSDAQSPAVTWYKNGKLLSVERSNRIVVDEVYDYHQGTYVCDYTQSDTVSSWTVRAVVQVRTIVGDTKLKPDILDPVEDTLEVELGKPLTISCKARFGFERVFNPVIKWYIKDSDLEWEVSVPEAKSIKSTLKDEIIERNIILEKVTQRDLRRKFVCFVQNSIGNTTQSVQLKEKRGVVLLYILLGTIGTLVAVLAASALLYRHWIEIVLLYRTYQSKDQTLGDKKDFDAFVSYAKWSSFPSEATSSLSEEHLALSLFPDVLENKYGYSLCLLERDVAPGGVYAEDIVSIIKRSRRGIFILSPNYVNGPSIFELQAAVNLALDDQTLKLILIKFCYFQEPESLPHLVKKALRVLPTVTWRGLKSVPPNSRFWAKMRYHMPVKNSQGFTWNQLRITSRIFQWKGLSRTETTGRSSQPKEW

[2] = target: T1, IL-18 receptor (IL-18Rαβ) on cells; test: cell-based or functional assay; remark: listed apart in the source
[3] = target: T1, IL-18 receptor (IL-18Rαβ) on cells; test: cell-based or functional assay; remark: listed apart in the source
[4] = target: T2, IL-18 receptor alpha subunit (Biotinylated for capture on streptavidin (SAX2) biosensors. The site and tag are not given in the patent.); test: BLI (Octet R8), IL-18 receptor alpha on streptavidin (SAX2) biosensor, analyte 1000 nM to 1.25 nM in 1:3 dilutions
T2 construct: also called IL18 receptor alpha (Acro, IL1-H82E7); IL-18Ra
T2 chain: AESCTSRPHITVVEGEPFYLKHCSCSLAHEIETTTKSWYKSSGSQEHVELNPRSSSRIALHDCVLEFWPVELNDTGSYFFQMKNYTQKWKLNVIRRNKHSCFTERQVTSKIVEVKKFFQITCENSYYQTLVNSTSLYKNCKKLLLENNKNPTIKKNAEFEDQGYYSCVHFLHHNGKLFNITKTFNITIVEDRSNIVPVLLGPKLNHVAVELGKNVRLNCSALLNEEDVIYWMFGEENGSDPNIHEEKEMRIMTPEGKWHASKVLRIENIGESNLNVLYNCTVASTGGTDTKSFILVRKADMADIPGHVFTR
Excerpt: Act-IL18 candidates C185, C314, and C315 were digested as described above and characterized by BLI. Briefly, undigested and digested samples were compared for their binding against IL18 receptor on an Octet R8 (Sartorius).

Fold potency loss vs C086 [1]: 60900 fold
HEK-blue EC50 [1]: 2560 nM
IFNγ release NK-92 assay EC50 [2]: 210 nM
Hek Blue reporter assay EC50 [3]: 2.79 nM
binding result [4]: no binding
B1: C185 (ligand)
chain: MAAEPVEDNCINFVAMKFIDNTLYFIAEDDENLESDPLGYFGKLKSKLSIIRNLNDQVLFIDQGNRPLFEDMTDSDARDNAPRTIFIISMYADSQPRGMAVAISVKCEKISTLSAENKIISFKEMNPPDNIKDTKSDIIFFQRSVPGHDNKMQFESSSYEGYFLAAEKERDLFKLILKKEDELGDRSIMFTVQNED
